According to patent publication US10087225B2, “Formulation of MK2 inhibitor peptides” (MOERAE MATRIX, INC., priority 2015, dated 2018):

Experiments:
Experiment in all cases: Kinase Profiling Assay
Format in all cases: biochemical
Conditions in all cases: for % activity: 100 μM
[1] = target: Ab1(T315I)(h) (Homo sapiens, UniProt P00519, T315I)
[2] = target: LOK(h) (Homo sapiens, UniProt O94804)
[3] = target: T1, ALK4(h) (Homo sapiens, UniProt P36896)
T1 sequence (P36896 24-505): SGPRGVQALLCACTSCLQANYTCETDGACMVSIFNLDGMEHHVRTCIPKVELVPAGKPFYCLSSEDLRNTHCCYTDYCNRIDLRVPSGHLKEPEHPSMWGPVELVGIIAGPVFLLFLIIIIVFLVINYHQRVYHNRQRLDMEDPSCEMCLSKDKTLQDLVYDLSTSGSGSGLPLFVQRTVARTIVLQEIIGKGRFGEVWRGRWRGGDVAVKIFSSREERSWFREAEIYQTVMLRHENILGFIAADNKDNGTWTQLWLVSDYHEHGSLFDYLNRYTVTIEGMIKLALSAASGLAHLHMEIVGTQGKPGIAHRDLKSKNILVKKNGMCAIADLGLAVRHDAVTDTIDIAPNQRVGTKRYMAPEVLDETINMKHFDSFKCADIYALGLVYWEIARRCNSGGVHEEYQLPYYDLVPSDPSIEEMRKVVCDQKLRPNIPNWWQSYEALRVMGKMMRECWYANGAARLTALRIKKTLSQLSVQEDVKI

[4] = target: T2, Mer(h) (Homo sapiens, UniProt Q12866)
T2 sequence (Q12866 21-999): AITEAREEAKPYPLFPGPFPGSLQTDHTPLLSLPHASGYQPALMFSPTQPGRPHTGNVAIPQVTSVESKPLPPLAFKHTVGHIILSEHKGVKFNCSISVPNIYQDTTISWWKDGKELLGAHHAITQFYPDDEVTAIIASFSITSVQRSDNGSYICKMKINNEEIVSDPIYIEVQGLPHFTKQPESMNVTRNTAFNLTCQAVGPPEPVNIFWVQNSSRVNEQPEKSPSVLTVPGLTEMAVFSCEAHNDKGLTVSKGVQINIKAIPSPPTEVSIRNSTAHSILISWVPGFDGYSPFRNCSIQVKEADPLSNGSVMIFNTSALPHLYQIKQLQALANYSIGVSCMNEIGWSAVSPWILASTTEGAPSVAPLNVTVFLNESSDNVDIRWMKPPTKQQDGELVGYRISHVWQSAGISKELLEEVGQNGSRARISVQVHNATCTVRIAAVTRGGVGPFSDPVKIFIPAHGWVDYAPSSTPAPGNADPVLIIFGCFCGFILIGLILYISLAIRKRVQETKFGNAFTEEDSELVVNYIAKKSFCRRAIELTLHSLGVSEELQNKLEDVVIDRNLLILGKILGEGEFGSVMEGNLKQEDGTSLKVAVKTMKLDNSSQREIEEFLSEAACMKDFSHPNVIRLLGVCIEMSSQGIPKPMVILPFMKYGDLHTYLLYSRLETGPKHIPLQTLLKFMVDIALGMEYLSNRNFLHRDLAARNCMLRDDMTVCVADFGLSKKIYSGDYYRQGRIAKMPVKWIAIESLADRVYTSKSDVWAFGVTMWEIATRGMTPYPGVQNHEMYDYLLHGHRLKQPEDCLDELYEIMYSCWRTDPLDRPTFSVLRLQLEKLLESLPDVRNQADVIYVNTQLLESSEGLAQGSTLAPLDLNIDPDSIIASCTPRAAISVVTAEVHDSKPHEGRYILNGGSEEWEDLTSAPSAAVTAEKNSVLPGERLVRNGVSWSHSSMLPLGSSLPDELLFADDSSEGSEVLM

[5] = target: PAK2(h) (Homo sapiens, UniProt Q13177)
Chain of PAK2(h) (Q13177 whole entry): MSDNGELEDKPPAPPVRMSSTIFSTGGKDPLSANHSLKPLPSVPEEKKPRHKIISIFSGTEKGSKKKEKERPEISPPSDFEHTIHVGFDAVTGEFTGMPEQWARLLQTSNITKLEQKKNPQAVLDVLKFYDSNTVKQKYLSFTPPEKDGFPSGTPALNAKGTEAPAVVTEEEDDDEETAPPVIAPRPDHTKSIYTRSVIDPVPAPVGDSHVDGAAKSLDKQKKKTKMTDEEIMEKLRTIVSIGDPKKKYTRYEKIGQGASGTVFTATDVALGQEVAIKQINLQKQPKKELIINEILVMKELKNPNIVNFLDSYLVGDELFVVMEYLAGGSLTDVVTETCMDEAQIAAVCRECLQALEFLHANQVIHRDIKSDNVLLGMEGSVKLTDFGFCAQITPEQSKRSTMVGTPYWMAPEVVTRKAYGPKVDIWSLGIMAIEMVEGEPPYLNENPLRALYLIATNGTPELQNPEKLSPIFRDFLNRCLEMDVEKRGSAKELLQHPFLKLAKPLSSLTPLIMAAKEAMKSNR

[6] = target: GRK6(h) (Homo sapiens, UniProt P43250)
Chain of GRK6(h) (P43250 whole entry): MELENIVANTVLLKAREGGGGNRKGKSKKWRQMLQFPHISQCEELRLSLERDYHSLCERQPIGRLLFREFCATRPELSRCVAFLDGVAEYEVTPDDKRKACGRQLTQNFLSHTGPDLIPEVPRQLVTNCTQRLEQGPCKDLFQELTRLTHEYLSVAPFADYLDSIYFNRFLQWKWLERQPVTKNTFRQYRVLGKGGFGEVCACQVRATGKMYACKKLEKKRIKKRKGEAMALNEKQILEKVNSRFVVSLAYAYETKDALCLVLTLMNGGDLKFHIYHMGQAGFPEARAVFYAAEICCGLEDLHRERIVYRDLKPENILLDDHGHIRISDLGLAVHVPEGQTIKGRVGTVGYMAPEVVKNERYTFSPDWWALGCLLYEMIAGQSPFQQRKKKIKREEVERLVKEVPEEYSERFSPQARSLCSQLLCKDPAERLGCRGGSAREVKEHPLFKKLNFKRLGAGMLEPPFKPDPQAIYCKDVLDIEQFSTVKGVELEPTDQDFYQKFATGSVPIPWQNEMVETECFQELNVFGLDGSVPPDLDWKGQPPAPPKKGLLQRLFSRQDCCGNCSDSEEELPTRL

[7] = target: Met(Y1248H)(h) (Homo sapiens, UniProt P08581, Y1230H)
[8] = target: Fms(h) (Homo sapiens, UniProt P07333)
[9] = target: T3, Itk(h) (Homo sapiens, UniProt Q08881)
T3 sequence (Q08881 1-620): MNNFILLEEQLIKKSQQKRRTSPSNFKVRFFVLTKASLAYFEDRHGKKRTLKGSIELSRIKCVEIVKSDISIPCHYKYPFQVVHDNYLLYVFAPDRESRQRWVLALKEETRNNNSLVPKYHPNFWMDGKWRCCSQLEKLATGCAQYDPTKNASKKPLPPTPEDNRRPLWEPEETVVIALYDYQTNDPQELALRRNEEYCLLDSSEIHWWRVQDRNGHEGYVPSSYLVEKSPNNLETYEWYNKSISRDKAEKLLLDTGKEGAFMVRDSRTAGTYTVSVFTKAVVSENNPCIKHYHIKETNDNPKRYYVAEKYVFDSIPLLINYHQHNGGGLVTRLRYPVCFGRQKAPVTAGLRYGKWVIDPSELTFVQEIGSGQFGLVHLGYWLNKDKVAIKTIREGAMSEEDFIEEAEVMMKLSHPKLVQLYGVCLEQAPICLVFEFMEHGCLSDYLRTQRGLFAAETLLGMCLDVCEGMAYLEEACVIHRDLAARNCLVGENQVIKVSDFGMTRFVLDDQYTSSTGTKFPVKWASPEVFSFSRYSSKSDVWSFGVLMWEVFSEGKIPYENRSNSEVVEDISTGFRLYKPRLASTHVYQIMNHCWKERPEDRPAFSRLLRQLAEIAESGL

[10] = target: Rsk4(h) (Homo sapiens, UniProt Q9UK32)
Chain of Rsk4(h) (Q9UK32 whole entry): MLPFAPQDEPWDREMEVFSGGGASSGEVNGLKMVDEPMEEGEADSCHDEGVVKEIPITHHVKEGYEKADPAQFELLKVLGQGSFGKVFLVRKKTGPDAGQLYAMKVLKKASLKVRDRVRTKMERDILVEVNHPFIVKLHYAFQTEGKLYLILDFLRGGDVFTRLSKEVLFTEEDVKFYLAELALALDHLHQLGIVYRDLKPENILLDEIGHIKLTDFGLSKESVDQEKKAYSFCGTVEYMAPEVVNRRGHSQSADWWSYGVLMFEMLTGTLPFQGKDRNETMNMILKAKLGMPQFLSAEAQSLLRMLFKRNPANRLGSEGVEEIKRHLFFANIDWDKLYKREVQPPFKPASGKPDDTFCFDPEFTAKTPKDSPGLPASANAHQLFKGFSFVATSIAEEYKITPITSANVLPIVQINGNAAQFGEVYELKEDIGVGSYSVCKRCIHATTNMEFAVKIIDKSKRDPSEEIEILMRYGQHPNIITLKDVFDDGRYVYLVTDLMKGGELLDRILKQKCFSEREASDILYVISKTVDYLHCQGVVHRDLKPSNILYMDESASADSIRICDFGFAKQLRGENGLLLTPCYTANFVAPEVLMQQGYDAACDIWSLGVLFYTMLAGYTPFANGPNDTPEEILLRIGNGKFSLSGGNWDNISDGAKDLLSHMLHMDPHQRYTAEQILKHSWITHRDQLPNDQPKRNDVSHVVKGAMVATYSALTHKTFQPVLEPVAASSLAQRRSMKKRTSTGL

Chain of LOK(h) (O94804 whole entry): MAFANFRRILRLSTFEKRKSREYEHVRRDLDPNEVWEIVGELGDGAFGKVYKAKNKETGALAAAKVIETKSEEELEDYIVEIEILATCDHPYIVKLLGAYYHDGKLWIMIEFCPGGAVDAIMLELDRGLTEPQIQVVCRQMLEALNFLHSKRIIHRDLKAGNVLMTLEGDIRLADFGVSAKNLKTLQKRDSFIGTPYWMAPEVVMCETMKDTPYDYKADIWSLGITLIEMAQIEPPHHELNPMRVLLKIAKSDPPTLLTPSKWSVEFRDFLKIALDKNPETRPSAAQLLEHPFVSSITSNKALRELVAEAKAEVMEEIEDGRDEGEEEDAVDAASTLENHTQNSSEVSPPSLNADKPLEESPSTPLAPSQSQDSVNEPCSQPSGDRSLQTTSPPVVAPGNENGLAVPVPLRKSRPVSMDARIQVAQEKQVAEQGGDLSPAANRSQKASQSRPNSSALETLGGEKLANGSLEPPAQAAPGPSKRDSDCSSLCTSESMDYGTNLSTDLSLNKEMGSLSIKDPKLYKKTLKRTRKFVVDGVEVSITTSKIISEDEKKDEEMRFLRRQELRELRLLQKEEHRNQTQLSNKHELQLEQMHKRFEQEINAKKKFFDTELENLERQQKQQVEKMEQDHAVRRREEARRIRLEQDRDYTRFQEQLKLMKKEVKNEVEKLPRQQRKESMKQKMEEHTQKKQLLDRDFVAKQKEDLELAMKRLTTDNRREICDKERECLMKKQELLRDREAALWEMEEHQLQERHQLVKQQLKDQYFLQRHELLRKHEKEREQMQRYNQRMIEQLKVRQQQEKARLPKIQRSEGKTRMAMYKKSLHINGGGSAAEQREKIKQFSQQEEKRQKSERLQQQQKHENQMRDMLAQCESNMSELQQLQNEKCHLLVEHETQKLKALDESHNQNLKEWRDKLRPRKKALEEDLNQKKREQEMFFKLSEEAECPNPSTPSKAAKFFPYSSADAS

HRRIKAWLKKIKALARQLGVAA (Mammalian) [MMI-0500]
% activity [1]: 16%
% activity [2]: 7%
% activity [3]: 81%
% activity [4]: 17%
% activity [5]: 44%
% activity [6]: 174%
% activity [7]: 126%
% activity [8]: 14%
% activity [9]: 7%
% activity [10]: 29%

YARAAARQARAKALNRQLGVA (Mammalian) [MMI-0200]
% activity [1]: 108%
% activity [2]: 67%
% activity [3]: 152%
% activity [4]: 90%
% activity [5]: 69%
% activity [6]: 132%
% activity [7]: 153%
% activity [8]: 92%
% activity [9]: 98%
% activity [10]: 125%

H-YARAAARQARAKALARQLGVAA-OH [MMI-0100]
activity at 100 µM [1]: 98%
activity at 100 µM [2]: 37%
activity at 100 µM [3]: 124%
activity at 100 µM [4]: 47%
activity at 100 µM [5]: 71%
activity at 100 µM [6]: 131%
activity at 100 µM [7]: 88%
activity at 100 µM [8]: 89%
activity at 100 µM [9]: 99%
activity at 100 µM [10]: 99%
